Experimental data published in patent US20180346602A1.
Where a chain is given by its changes, count along the chain named. One block for each binder: values may come before it.

What was measured:
[1] = biological target: anti-IGF-1R antibody (IgG1 subclass with mutations I253A/H310A/H435A) (human) [IgG part: P01857]; assay: sandwich ELISA assay C; capture on SA plate; tracer FcγRI-Dig; analyte 50 ng/mL
[2] = biological target: anti-P-Selectin antibody (IgG4 subclass with mutations S228P/L235E) [IgG part: P01861]; assay: sandwich ELISA assay A; capture M1.7.10-Bi; antibody 4 at 100 ng/mL
[3] = biological target: anti-IGF-1R antibody (IgG1 subclass with mutations I253A/H310A/H435A) (human) [IgG part: P01857]; assay: sandwich ELISA assay B; capture on SA plate; tracer M1.7.10-Dig; analyte 25 ng/mL
[4] = biological target: anti-P-Selectin antibody (IgG4 subclass with mutations S228P/L235E) (human) [IgG part: P01861]; assay: as above
[5] = biological target: anti-VEGF/ANG2 antibody (IgG1 subclass with mutations P329G/L234A/L235A) (human) [IgG part: P01857]; assay: as above
[6] = biological target: anti-VEGF/ANG2 antibody (IgG1 subclass with mutations P329G/L234A/L235A/I253A/H310A/H435A) (human) [IgG part: P01857]; assay: as above
[7] = biological target: anti-IGF-1R antibody (IgG1 subclass with mutations I253A/H310A/H435A) (human) [IgG part: P01857]; assay: sandwich ELISA assay B; capture on SA plate; tracer M1.7.10-Dig; analyte 50 ng/mL
[8] = biological target: anti-P-Selectin antibody (IgG4 subclass with mutations S228P/L235E) (human) [IgG part: P01861]; assay: as above
[9] = biological target: anti-VEGF/ANG2 antibody (IgG1 subclass with mutations P329G/L234A/L235A) (human) [IgG part: P01857]; assay: as above
[10] = biological target: anti-VEGF/ANG2 antibody (IgG1 subclass with mutations P329G/L234A/L235A/I253A/H310A/H435A) (human) [IgG part: P01857]; assay: as above
[11] = biological target: anti-VEGF/ANG2 antibody (IgG1 subclass with mutations P329G/L234A/L235A) [IgG part: P01857]; assay: sandwich ELISA assay A; capture M1.7.10-Bi; antibody 2 at 2 ng/mL
[12] = biological target: anti-IGF-1R antibody (IgG1 subclass with mutations I253A/H310A/H435A) [IgG part: P01857]; assay: sandwich ELISA assay A; capture M1.7.10-Bi; antibody 3 at 6 ng/mL
[13] = biological target: anti-VEGF/ANG2 antibody (wild-type IgG1 subclass) [IgG part: P01857]; assay: sandwich ELISA assay A; capture M1.7.10-Bi; antibody 5 at 50 ng/mL
[14] = biological target: anti-IGF-1R antibody (IgG1 subclass with mutations I253A/H310A/H435A) [IgG part: P01857]; assay: sandwich ELISA assay A; capture M1.7.10-Bi; antibody 3 at 0 ng/mL (blank)
[15] = biological target: anti-VEGF/ANG2 antibody (IgG1 subclass with mutations P329G/L234A/L235A) [IgG part: P01857]; assay: sandwich ELISA assay A; capture M1.7.10-Bi; antibody 2 at 50 ng/mL
[16] = biological target: anti-IGF-1R antibody (IgG1 subclass with mutations I253A/H310A/H435A) (human) [IgG part: P01857]; assay: sandwich ELISA assay C; capture on SA plate; tracer FcγRI-Dig; analyte 25 ng/mL
[17] = biological target: anti-P-Selectin antibody (IgG4 subclass with mutations S228P/L235E) (human) [IgG part: P01861]; assay: as above
[18] = biological target: anti-VEGF/ANG2 antibody (IgG1 subclass with mutations P329G/L234A/L235A) (human) [IgG part: P01857]; assay: as above
[19] = biological target: anti-VEGF/ANG2 antibody (IgG1 subclass with mutations P329G/L234A/L235A/I253A/H310A/H435A) (human) [IgG part: P01857]; assay: as above
[20] = biological target: anti-IGF-1R antibody (IgG1 subclass with mutations I253A/H310A/H435A) (human) [IgG part: P01857]; assay: sandwich ELISA assay B; capture on SA plate; tracer M1.7.10-Dig; analyte 0 ng/mL (blank)
[21] = biological target: anti-P-Selectin antibody (IgG4 subclass with mutations S228P/L235E) (human) [IgG part: P01861]; assay: as above
[22] = biological target: anti-VEGF/ANG2 antibody (IgG1 subclass with mutations P329G/L234A/L235A) (human) [IgG part: P01857]; assay: as above
[23] = biological target: anti-VEGF/ANG2 antibody (IgG1 subclass with mutations P329G/L234A/L235A/I253A/H310A/H435A) (human) [IgG part: P01857]; assay: as above
[24] = biological target: anti-VEGF/ANG2 antibody (wild-type IgG1 subclass) [IgG part: P01857]; assay: sandwich ELISA assay A; capture M1.7.10-Bi; antibody 5 at 2 ng/mL
[25] = biological target: anti-P-Selectin antibody (IgG4 subclass with mutations S228P/L235E) (human) [IgG part: P01861]; assay: sandwich ELISA assay B; capture on SA plate; tracer M1.7.10-Dig; analyte 100 ng/mL

signal [OD405 nm] [1]: 1.21 OD405 nm | signal [OD405 nm] [2]: 0.04 OD405 nm | signal [OD405 nm] [3]: 0.046 OD405 nm | signal [OD405 nm] [4]: 0.047 OD405 nm | signal [OD405 nm] [5]: 0.213 OD405 nm | signal [OD405 nm] [6]: 0.035 OD405 nm | signal [OD405 nm] [7]: 0.048 OD405 nm | signal [OD405 nm] [8]: 0.049 OD405 nm | signal [OD405 nm] [9]: 0.215 OD405 nm | signal [OD405 nm] [10]: 0.035 OD405 nm | signal [OD405 nm] [11]: 0.669 OD405 nm | signal [OD405 nm] [12]: 0.038 OD405 nm | signal [OD405 nm] [13]: 0.041 OD405 nm | signal [OD405 nm] [14]: 0.04 OD405 nm | signal [OD405 nm] [15]: 2.96 OD405 nm | signal [OD405 nm] [16]: 1.2 OD405 nm | signal [OD405 nm] [17]: 1.17 OD405 nm | signal [OD405 nm] [18]: 1.21 OD405 nm | signal [OD405 nm] [19]: 1.07 OD405 nm | signal [OD405 nm] [20]: 0.045 OD405 nm | signal [OD405 nm] [21]: 0.049 OD405 nm | signal [OD405 nm] [22]: 0.038 OD405 nm | signal [OD405 nm] [23]: 0.035 OD405 nm | signal [OD405 nm] [24]: 0.034 OD405 nm | signal [OD405 nm] [25]: 0.048 OD405 nm
B1: anti-variant (human) Fc-region antibody M1.3.17 (antibody, V domains shown)
VH: EVKLLESGGGLVQPGGSLKLSCAASGIDFRRYWMNWVRQAPGKGLEWIGEIDPDSSTINYTPSLKDKFIISRDNAKNTMYLQMRKVRSEDTALYYCARPYDYGAWFAYWGQGTLVTVSA
VL: QAVVTQESALTTSPGETVTLTCRSTTGAVTTSNYANWVQEKPDHLFTGLIGGTNKRAPGVPARFSGSLIGDKAALTITGAQTEDEAIYFCALWYSDHWVFGGGTKLTVL

signal [OD405 nm] [1]: 0.095 OD405 nm | signal [OD405 nm] [2]: 0.046 OD405 nm | signal [OD405 nm] [3]: 0.048 OD405 nm | signal [OD405 nm] [4]: 0.04 OD405 nm | signal [OD405 nm] [5]: 3.16 OD405 nm | signal [OD405 nm] [6]: 0.047 OD405 nm | signal [OD405 nm] [7]: 0.064 OD405 nm | signal [OD405 nm] [8]: 0.043 OD405 nm | signal [OD405 nm] [9]: 3.17 OD405 nm | signal [OD405 nm] [10]: 0.06 OD405 nm | signal [OD405 nm] [11]: 1.13 OD405 nm | signal [OD405 nm] [12]: 0.042 OD405 nm | signal [OD405 nm] [13]: 0.048 OD405 nm | signal [OD405 nm] [14]: 0.049 OD405 nm | signal [OD405 nm] [15]: 2.6 OD405 nm | signal [OD405 nm] [16]: 0.073 OD405 nm | signal [OD405 nm] [17]: 0.07 OD405 nm | signal [OD405 nm] [18]: 0.083 OD405 nm | signal [OD405 nm] [19]: 0.082 OD405 nm | signal [OD405 nm] [20]: 0.04 OD405 nm | signal [OD405 nm] [21]: 0.035 OD405 nm | signal [OD405 nm] [22]: 0.046 OD405 nm | signal [OD405 nm] [23]: 0.049 OD405 nm | signal [OD405 nm] [24]: 0.038 OD405 nm | signal [OD405 nm] [25]: 0.05 OD405 nm
B2: anti-variant (human) Fc-region antibody M1.7.24 (antibody, V domains shown)
VH: B1 VH with I27F, R30S, D52T, M79L, R84I, A97V, Y108S
VL: B1 VL with T25S, D96N

signal [OD405 nm] [1]: 1.06 OD405 nm | signal [OD405 nm] [2]: 0.057 OD405 nm | signal [OD405 nm] [3]: 2.89 OD405 nm | signal [OD405 nm] [4]: 0.048 OD405 nm | signal [OD405 nm] [5]: 0.092 OD405 nm | signal [OD405 nm] [6]: 0.044 OD405 nm | signal [OD405 nm] [7]: 2.9 OD405 nm | signal [OD405 nm] [8]: 0.047 OD405 nm | signal [OD405 nm] [9]: 0.127 OD405 nm | signal [OD405 nm] [10]: 0.05 OD405 nm | signal [OD405 nm] [11]: 0.047 OD405 nm | signal [OD405 nm] [12]: 0.858 OD405 nm | signal [OD405 nm] [13]: 0.045 OD405 nm | signal [OD405 nm] [14]: 0.046 OD405 nm | signal [OD405 nm] [15]: 0.065 OD405 nm | signal [OD405 nm] [16]: 0.401 OD405 nm | signal [OD405 nm] [17]: 0.06 OD405 nm | signal [OD405 nm] [18]: 0.063 OD405 nm | signal [OD405 nm] [19]: 0.081 OD405 nm | signal [OD405 nm] [20]: 0.037 OD405 nm | signal [OD405 nm] [21]: 0.038 OD405 nm | signal [OD405 nm] [22]: 0.038 OD405 nm | signal [OD405 nm] [23]: 0.047 OD405 nm | signal [OD405 nm] [24]: 0.047 OD405 nm | signal [OD405 nm] [25]: 0.051 OD405 nm
B3: anti-AAA variant Fc-region antibody M1.6.22 (antibody, V domains shown)
VH: EVQLVESGGDLVKPGGSLKLSCAASGFTFSSYGMSWVRQTPDKRLEWVATISSGGSYIYYPDSVKGRFTISRDNAKNTLYLQMSSLKSEDTAMYYCARLGMITTGYAMDYWGQGTSVTVSS
VL: DVLMTQTPLSLPVSLGDQASISCRSSQTIVHSTGHTYLEWFLQKPGQSPKLLIYKVSNRFSGVPDRFSGSGSGTDFTLKISRVEAEDLGVYYCFQGSHVPYTFGGGTKLEIK
